B1: [Dat^1, Gln^8, Orn^12, Abu^15, Orn^21, Nle^27, Asp^28]hGH-RH(1-29)NH-CH3 (peptide)
peptide: [Desaminotyrosyl]ADAIFTQSYR[Orn]VL[Abu]QLSAR[Orn]LLQDI[Nle]DR-NHMe
SMILES: CCCC[C@H](NC(=O)[C@@H](NC(=O)[C@H](CC(=O)O)NC(=O)[C@H](CCC(N)=O)NC(=O)[C@H](CC(C)C)NC(=O)[C@H](CC(C)C)NC(=O)[C@H](CCCN)NC(=O)[C@H](CCCNC(=N)N)NC(=O)[C@H](C)NC(=O)[C@H](CO)NC(=O)[C@H](CC(C)C)NC(=O)[C@H](CCC(N)=O)NC(=O)[C@H](CC)NC(=O)[C@H](CC(C)C)NC(=O)[C@@H](NC(=O)[C@H](CCCN)NC(=O)[C@H](CCCNC(=N)N)NC(=O)[C@H](Cc1ccc(O)cc1)NC(=O)[C@H](CO)NC(=O)[C@H](CCC(N)=O)NC(=O)[C@@H](NC(=O)[C@H](Cc1ccccc1)NC(=O)[C@@H](NC(=O)[C@H](C)NC(=O)[C@H](CC(=O)O)NC(=O)[C@H](C)NC(=O)CCc1ccc(O)cc1)[C@@H](C)CC)[C@@H](C)O)C(C)C)[C@@H](C)CC)C(=O)N[C@@H](CC(=O)O)C(=O)N[C@@H](CCCNC(=N)N)C(=O)NC
notes: also called Peptide 27407
B2: [Dat^1, D-Ala^2, Orn^12, Abu^15, Orn^21, Nle^27, Asp^28, Amc^30]hGH-RH(1-30)NH2 (peptide)
peptide: [Desaminotyrosyl][dA]DAIFTNSYR[Orn]VL[Abu]QLSAR[Orn]LLQDI[Nle]DR[Aoc]-NH2
SMILES: CCCC[C@H](NC(=O)[C@@H](NC(=O)[C@H](CC(=O)O)NC(=O)[C@H](CCC(N)=O)NC(=O)[C@H](CC(C)C)NC(=O)[C@H](CC(C)C)NC(=O)[C@H](CCCN)NC(=O)[C@H](CCCNC(=N)N)NC(=O)[C@H](C)NC(=O)[C@H](CO)NC(=O)[C@H](CC(C)C)NC(=O)[C@H](CCC(N)=O)NC(=O)[C@H](CC)NC(=O)[C@H](CC(C)C)NC(=O)[C@@H](NC(=O)[C@H](CCCN)NC(=O)[C@H](CCCNC(=N)N)NC(=O)[C@H](Cc1ccc(O)cc1)NC(=O)[C@H](CO)NC(=O)[C@H](CC(N)=O)NC(=O)[C@@H](NC(=O)[C@H](Cc1ccccc1)NC(=O)[C@@H](NC(=O)[C@H](C)NC(=O)[C@H](CC(=O)O)NC(=O)[C@@H](C)NC(=O)CCc1ccc(O)cc1)[C@@H](C)CC)[C@@H](C)O)C(C)C)[C@@H](C)CC)C(=O)N[C@@H](CC(=O)O)C(=O)N[C@@H](CCCNC(=N)N)C(=O)NCCCCCCCC(N)=O
notes: also called Peptide 21300
B3: [Dat^1, D-Ala^2, Orn^12, Abu^15, Orn^21, Nle^27, Asp^28]hGH-RH(1-29)NH-CH3 (peptide)
peptide: [Desaminotyrosyl][dA]DAIFTNSYR[Orn]VL[Abu]QLSAR[Orn]LLQDI[Nle]DR-NHMe
SMILES: CCCC[C@H](NC(=O)[C@@H](NC(=O)[C@H](CC(=O)O)NC(=O)[C@H](CCC(N)=O)NC(=O)[C@H](CC(C)C)NC(=O)[C@H](CC(C)C)NC(=O)[C@H](CCCN)NC(=O)[C@H](CCCNC(=N)N)NC(=O)[C@H](C)NC(=O)[C@H](CO)NC(=O)[C@H](CC(C)C)NC(=O)[C@H](CCC(N)=O)NC(=O)[C@H](CC)NC(=O)[C@H](CC(C)C)NC(=O)[C@@H](NC(=O)[C@H](CCCN)NC(=O)[C@H](CCCNC(=N)N)NC(=O)[C@H](Cc1ccc(O)cc1)NC(=O)[C@H](CO)NC(=O)[C@H](CC(N)=O)NC(=O)[C@@H](NC(=O)[C@H](Cc1ccccc1)NC(=O)[C@@H](NC(=O)[C@H](C)NC(=O)[C@H](CC(=O)O)NC(=O)[C@@H](C)NC(=O)CCc1ccc(O)cc1)[C@@H](C)CC)[C@@H](C)O)C(C)C)[C@@H](C)CC)C(=O)N[C@@H](CC(=O)O)C(=O)N[C@@H](CCCNC(=N)N)C(=O)NC
B4: [Dat^1, Gln^8, His^11, Orn^12, Abu^15, His^20, Orn^21, Nle^27, Asp^28]hGH-RH(1-29)NH-CH3 (peptide)
peptide: [Desaminotyrosyl]ADAIFTQSYH[Orn]VL[Abu]QLSAH[Orn]LLQDI[Nle]DR-NHMe
SMILES: CCCC[C@H](NC(=O)[C@@H](NC(=O)[C@H](CC(=O)O)NC(=O)[C@H](CCC(N)=O)NC(=O)[C@H](CC(C)C)NC(=O)[C@H](CC(C)C)NC(=O)[C@H](CCCN)NC(=O)[C@H](Cc1c[nH]cn1)NC(=O)[C@H](C)NC(=O)[C@H](CO)NC(=O)[C@H](CC(C)C)NC(=O)[C@H](CCC(N)=O)NC(=O)[C@H](CC)NC(=O)[C@H](CC(C)C)NC(=O)[C@@H](NC(=O)[C@H](CCCN)NC(=O)[C@H](Cc1c[nH]cn1)NC(=O)[C@H](Cc1ccc(O)cc1)NC(=O)[C@H](CO)NC(=O)[C@H](CCC(N)=O)NC(=O)[C@@H](NC(=O)[C@H](Cc1ccccc1)NC(=O)[C@@H](NC(=O)[C@H](C)NC(=O)[C@H](CC(=O)O)NC(=O)[C@H](C)NC(=O)CCc1ccc(O)cc1)[C@@H](C)CC)[C@@H](C)O)C(C)C)[C@@H](C)CC)C(=O)N[C@@H](CC(=O)O)C(=O)N[C@@H](CCCNC(=N)N)C(=O)NC
notes: also called Peptide 27413
B5: [N-Me-Tyr^1, Orn^12, Abu^15, Orn^21, Nle^27, Asp^28, Amc^30]hGH-RH(1-30)NH2 (peptide)
peptide: [NMeY]ADAIFTNSYR[Orn]VL[Abu]QLSAR[Orn]LLQDI[Nle]DR[Aoc]-NH2
modifications: N-terminus assumed
SMILES: CCCC[C@H](NC(=O)[C@@H](NC(=O)[C@H](CC(=O)O)NC(=O)[C@H](CCC(N)=O)NC(=O)[C@H](CC(C)C)NC(=O)[C@H](CC(C)C)NC(=O)[C@H](CCCN)NC(=O)[C@H](CCCNC(=N)N)NC(=O)[C@H](C)NC(=O)[C@H](CO)NC(=O)[C@H](CC(C)C)NC(=O)[C@H](CCC(N)=O)NC(=O)[C@H](CC)NC(=O)[C@H](CC(C)C)NC(=O)[C@@H](NC(=O)[C@H](CCCN)NC(=O)[C@H](CCCNC(=N)N)NC(=O)[C@H](Cc1ccc(O)cc1)NC(=O)[C@H](CO)NC(=O)[C@H](CC(N)=O)NC(=O)[C@@H](NC(=O)[C@H](Cc1ccccc1)NC(=O)[C@@H](NC(=O)[C@H](C)NC(=O)[C@H](CC(=O)O)NC(=O)[C@H](C)NC(=O)[C@H](Cc1ccc(O)cc1)NC)[C@@H](C)CC)[C@@H](C)O)C(C)C)[C@@H](C)CC)C(=O)N[C@@H](CC(=O)O)C(=O)N[C@@H](CCCNC(=N)N)C(=O)NCCCCCCCC(N)=O
notes: also called Peptide 21301
B6: [Dat^1, Gln^8, Orn^12, Abu^15, Orn^21, Nle^27, Asp^28, Apa^30]hGH-RH(1-30)NH2 (peptide)
peptide: [Desaminotyrosyl]ADAIFTQSYR[Orn]VL[Abu]QLSAR[Orn]LLQDI[Nle]DR[Ava]-NH2
SMILES: CCCC[C@H](NC(=O)[C@@H](NC(=O)[C@H](CC(=O)O)NC(=O)[C@H](CCC(N)=O)NC(=O)[C@H](CC(C)C)NC(=O)[C@H](CC(C)C)NC(=O)[C@H](CCCN)NC(=O)[C@H](CCCNC(=N)N)NC(=O)[C@H](C)NC(=O)[C@H](CO)NC(=O)[C@H](CC(C)C)NC(=O)[C@H](CCC(N)=O)NC(=O)[C@H](CC)NC(=O)[C@H](CC(C)C)NC(=O)[C@@H](NC(=O)[C@H](CCCN)NC(=O)[C@H](CCCNC(=N)N)NC(=O)[C@H](Cc1ccc(O)cc1)NC(=O)[C@H](CO)NC(=O)[C@H](CCC(N)=O)NC(=O)[C@@H](NC(=O)[C@H](Cc1ccccc1)NC(=O)[C@@H](NC(=O)[C@H](C)NC(=O)[C@H](CC(=O)O)NC(=O)[C@H](C)NC(=O)CCc1ccc(O)cc1)[C@@H](C)CC)[C@@H](C)O)C(C)C)[C@@H](C)CC)C(=O)N[C@@H](CC(=O)O)C(=O)N[C@@H](CCCNC(=N)N)C(=O)NCCCCC(N)=O
notes: also called Peptide 22327

Square brackets hold non-standard residues; d marks the D form. Ends that are not written are not given here. * marks the point of attachment. Desaminotyrosyl = O=C(CCc1ccc(O)cc1)*; NMeY = CN[C@@H](Cc1ccc(O)cc1)C(=O)O; Nle = CCCC[C@H](N)C(=O)O; Orn = NCCC[C@H](N)C(=O)O; Abu = CC[C@H](N)C(=O)O; Aoc = NCCCCCCCC(=O)O; Ava = NCCCCC(=O)O

In this assay the target is T1, GHRH receptor of human pituitary membrane homogenates (human, UniProt Q02643 23-423).
T1 construct: whole, on cells; Native receptor in pituitary membrane homogenates, not intact cells; also called hGH-RH receptor
T1 sequence (looked up): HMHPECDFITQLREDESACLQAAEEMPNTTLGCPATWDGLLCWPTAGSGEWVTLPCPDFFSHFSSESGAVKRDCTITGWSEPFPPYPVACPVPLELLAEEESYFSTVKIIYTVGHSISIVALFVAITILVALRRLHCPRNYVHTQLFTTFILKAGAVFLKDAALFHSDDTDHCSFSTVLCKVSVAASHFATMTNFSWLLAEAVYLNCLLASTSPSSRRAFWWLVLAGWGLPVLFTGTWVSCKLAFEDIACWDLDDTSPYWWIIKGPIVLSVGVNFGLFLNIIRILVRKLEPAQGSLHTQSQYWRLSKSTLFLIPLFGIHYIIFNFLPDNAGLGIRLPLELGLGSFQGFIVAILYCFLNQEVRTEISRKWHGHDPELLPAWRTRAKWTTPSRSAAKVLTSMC
Put plainly: radioligand competition, 125I-JV-1-42 (~0.2 nM) as competitor, human pituitary membrane homogenates. The source says: Normal human pituitaries were purchased from the National Hormone and Peptide Program (A. F. Parlow, Los Angeles, County Harbor-UCLA Medical Center, Torrance, Calif.).
As for B1, the IC50 amounted to 3 nM and the “Relative affinity (Binding potency) vs JI-38” value (shortened to “Relative affinity”) was 1.45 fold, JI-38 = 1. Consider [NMeY][dA]DAIFTTSYR[Orn]VL[Abu]QLSAR[Orn]LLQDI[Nle]DR-NHMe [[N-Me-Tyr^1, D-Ala^2, Thr^8, Orn^12, Abu^15, Orn^21, Nle^27, Asp^28]hGH-RH(1-29)NH-CH3], for which the IC50 turned out to be 0.83 nM and the “Relative affinity” value was 5.24 fold, JI-38 = 1.

For the molecule [NMeY][dA]DAIFTQSYR[Orn]VL[Abu]QLSAR[Orn]LLQDI[Nle]DR-NHEt (also called Peptide 28420) [[N-Me-Tyr^1, D-Ala^2, Gln^8, Orn^12, Abu^15, Orn^21, Nle^27, Asp^28]hGH-RH(1-29)NH-CH2-CH3], the “Relative affinity” value is 8.37 fold, JI-38 = 1. Regarding B2, the IC50 came out at 3.61 nM and the “Relative affinity” value is 1.2 fold, JI-38 = 1. For B3, the IC50 amounted to 3.35 nM and the “Relative affinity” value was 1.3 fold, JI-38 = 1. With [NMeY]ADAIFTQSYR[Orn]VL[Abu]QLSAR[Orn]LLQDI[Nle]DR-NHMe (also called Peptide 27406) [[N-Me-Tyr^1, Gln^8, Orn^12, Abu^15, Orn^21, Nle^27, Asp^28]hGH-RH(1-29)NH-CH3], the concentration for half-maximal inhibition (IC50) came to 0.3 nM and the “Relative affinity” value was 14.5 fold, JI-38 = 1. For B4, the IC50 was 2.45 nM and the “Relative affinity” value was 1.78 fold, JI-38 = 1. Regarding [NMeY]ADAIFTQSYR[Orn]VL[Abu]QLSAR[Orn]LLQDI[Nle]SR-NHMe [[N-Me-Tyr^1, Gln^8, Orn^12, Abu^15, Orn^21, Nle^27]hGH-RH(1-29)NH-CH3], the IC50 came to 1.08 nM and the “Relative affinity” value was 4.03 fold, JI-38 = 1. Turning to B5, the IC50 stood at 2.99 nM and the “Relative affinity” value was 1.45 fold, JI-38 = 1. Turning to [NMeY]ADAIFTQSYR[Orn]VL[Abu]QLSAR[Orn]LLQDI[Nle]DR[Ava]-NH2 (also called Peptide 22325) [[N-Me-Tyr^1, Gln^8, Orn^12, Abu^15, Orn^21, Nle^27, Asp^28, Apa^30]hGH-RH(1-30)NH2], the IC50 is 3.8 nM and the “Relative affinity” value was 1.14 fold, JI-38 = 1.

As to B6, the IC50 was 1.99 nM and the “Relative affinity” value was 2.18 fold, JI-38 = 1.

Source of the values: US20140058068A1 (UNIVERSITY OF MIAMI, published 2014).
